Measured values as given in the MegaScale stability set (Tsuboyama et al. 2023).

B1: EHEE_rd4_0726 (parent)
chain: DIEITTNGEEDAKRVIKELQKRNLEYHIEVHGNQWVIKVR

Variants of: B1
Assay: folding stability dG (cDNA display proteolysis); higher = more stable
Details: PBS, room temperature

Row | Variant | folding stability dG
1 | L24H | 1.13 kcal/mol
2 | L24S | 1.04 kcal/mol
3 | L24T | 1.14 kcal/mol
4 | L24A | 1.7 kcal/mol
5 | L24G | 0.458 kcal/mol
6 | E29R | 1.77 kcal/mol
7 | E29N | 1.41 kcal/mol
8 | E29Q | 2 kcal/mol
9 | E29W | 1.82 kcal/mol
10 | E29Y | 2.26 kcal/mol
11 | D11R | 1.99 kcal/mol
12 | D11P | 1.49 kcal/mol
13 | D11H | 2.52 kcal/mol
14 | T5R | 2.92 kcal/mol
15 | T5I | 3.17 kcal/mol
16 | T5M | 2.39 kcal/mol
17 | T5A | 1.84 kcal/mol
18 | T5N | 1.75 kcal/mol
19 | T5H | 2.61 kcal/mol
20 | T5C | 2.86 kcal/mol
21 | T5G | 1.08 kcal/mol
22 | T5S | 1.96 kcal/mol
23 | T5K | 2.32 kcal/mol
24 | E3Y | 3.11 kcal/mol

Row | Variant | folding stability dG
25 | E3D | 1.78 kcal/mol
26 | E3N | 1.87 kcal/mol
27 | E3F | 2.93 kcal/mol
28 | I2G | 1.4 kcal/mol
29 | I2T | 1.91 kcal/mol
30 | I2P | 1.06 kcal/mol
31 | I2A | 1.53 kcal/mol
32 | I2L | 2.52 kcal/mol
33 | I2K | 1.58 kcal/mol
34 | I2C | 2.82 kcal/mol
35 | H27I | 2.84 kcal/mol
36 | H27F | 2.57 kcal/mol
37 | H27K | 2.46 kcal/mol
38 | H27V | 2.86 kcal/mol
39 | H27M | 2.54 kcal/mol
40 | H27Q | 2.45 kcal/mol
41 | H27W | 2.69 kcal/mol
42 | H27L | 2.37 kcal/mol
43 | H27T | 3.34 kcal/mol
44 | L19H | -0.603 kcal/mol
45 | L19W | 0.45 kcal/mol
46 | V15F | 1.97 kcal/mol
47 | V15R | 0.981 kcal/mol
48 | V15W | 2.41 kcal/mol

Row | Variant | folding stability dG
49 | V15I | 2.91 kcal/mol
50 | V15S | 0.278 kcal/mol
51 | V15Y | 1.99 kcal/mol
52 | V39H | 0.549 kcal/mol
53 | V39T | 1.12 kcal/mol
54 | V39S | 0.617 kcal/mol
55 | K13N | 2.32 kcal/mol
56 | K13P | 0.028 kcal/mol
57 | K13I | 2.52 kcal/mol
58 | K13C | 2.59 kcal/mol
59 | K13W | 3 kcal/mol
60 | K13R | 2.71 kcal/mol
61 | E25P | 2.33 kcal/mol
62 | E25G | 2.04 kcal/mol
63 | E25A | 2.53 kcal/mol
64 | E25V | 2.58 kcal/mol
65 | E25H | 2.7 kcal/mol
66 | E25N | 2.28 kcal/mol
67 | E18D | 1.84 kcal/mol
68 | E18W | 3.42 kcal/mol
69 | E18L | 2.65 kcal/mol
70 | E18P | -0.054 kcal/mol
71 | E18C | 3.47 kcal/mol
72 | E18Q | 2.19 kcal/mol

Row | Variant | folding stability dG
73 | D1K | 1.97 kcal/mol
74 | D1L | 2.76 kcal/mol
75 | D1E | 2.59 kcal/mol
76 | D1M | 2.87 kcal/mol
77 | D1S | 2.39 kcal/mol
78 | D1A | 2.34 kcal/mol
79 | I4G | -0.292 kcal/mol
80 | I4V | 1.57 kcal/mol
81 | I4D | -0.582 kcal/mol
82 | I4F | 2.12 kcal/mol
83 | I4N | -0.395 kcal/mol
84 | I4A | 0.165 kcal/mol
85 | V36M | 1.37 kcal/mol
86 | V36S | 0.912 kcal/mol
87 | V36A | 0.418 kcal/mol
88 | K21F | 2.25 kcal/mol
89 | K21I | 2.19 kcal/mol
90 | K21T | 1.91 kcal/mol
91 | K21V | 1.91 kcal/mol
92 | K21S | 2.3 kcal/mol
93 | K21W | 2.04 kcal/mol
94 | K21A | 2.54 kcal/mol
95 | K21M | 2.51 kcal/mol
96 | K21E | 2.44 kcal/mol

Row | Variant | folding stability dG
97 | G32R | 1.09 kcal/mol
98 | G32K | 1.35 kcal/mol
99 | G32S | 1.21 kcal/mol
100 | G32P | 1 kcal/mol
101 | G32W | 0.99 kcal/mol
102 | T6S | 1.47 kcal/mol
103 | T6M | 2.38 kcal/mol
104 | T6F | 2.32 kcal/mol
105 | T6V | 3.55 kcal/mol
106 | T6H | 0.768 kcal/mol
107 | T6R | 1.53 kcal/mol
108 | T6Y | 1.59 kcal/mol
109 | T6E | 0.908 kcal/mol
110 | K38V | 2.7 kcal/mol
111 | K38I | 3.04 kcal/mol
112 | K38N | 1.29 kcal/mol
113 | K38W | 2.19 kcal/mol
114 | A12L | 2.53 kcal/mol
115 | A12S | 1.28 kcal/mol
116 | A12T | 1.74 kcal/mol
117 | A12N | 0.444 kcal/mol
118 | A12H | 1.01 kcal/mol
119 | Q34G | 1.42 kcal/mol
120 | Q34V | 2.72 kcal/mol

Row | Variant | folding stability dG
121 | Q34D | 1.68 kcal/mol
122 | Q34Y | 2.5 kcal/mol
123 | Q34R | 2.59 kcal/mol
124 | Q34A | 1.92 kcal/mol
125 | Q34W | 2.32 kcal/mol
126 | R14Y | 2.2 kcal/mol
127 | R14I | 2.19 kcal/mol
128 | R14E | 2.04 kcal/mol
129 | R14F | 2.24 kcal/mol
130 | R14V | 2.04 kcal/mol
131 | R14G | 1.51 kcal/mol
132 | V30D | 0.526 kcal/mol
133 | V30A | 1.41 kcal/mol
134 | V30P | 0.866 kcal/mol
135 | W35N | -0.421 kcal/mol
136 | W35L | 1.53 kcal/mol
137 | W35T | 1.24 kcal/mol
138 | E10S | 1.95 kcal/mol
139 | E10D | 2.25 kcal/mol
140 | E10Q | 2.16 kcal/mol
141 | E10N | 1.93 kcal/mol
142 | E9T | 1.52 kcal/mol
143 | E9V | 2.15 kcal/mol
144 | E9I | 2.48 kcal/mol

Row | Variant | folding stability dG
145 | H31W | 2.08 kcal/mol
146 | H31I | 2.72 kcal/mol
147 | H31C | 2.31 kcal/mol
148 | H31Q | 2.29 kcal/mol
149 | H31T | 2.17 kcal/mol
150 | H31E | 1.68 kcal/mol
151 | H31P | -0.6 kcal/mol
152 | Y26L | 1.35 kcal/mol
153 | N23M | 2.13 kcal/mol
154 | N23K | 2.42 kcal/mol
155 | N23W | 1.51 kcal/mol
156 | N23I | 0.939 kcal/mol
157 | N23R | 2.43 kcal/mol
158 | N23A | 2.03 kcal/mol
159 | N33C | 1.96 kcal/mol
160 | N33W | 1.83 kcal/mol
161 | N33R | 1.68 kcal/mol
162 | N33L | 1.94 kcal/mol
163 | N33P | 1.78 kcal/mol
164 | N33E | 2.16 kcal/mol
165 | N33Y | 1.98 kcal/mol
166 | R40D | 1.59 kcal/mol
167 | R40M | 2.58 kcal/mol
168 | R40H | 2.74 kcal/mol

Row | Variant | folding stability dG
169 | R40I | 2.84 kcal/mol
170 | R40P | 1.89 kcal/mol
171 | R40Q | 2.11 kcal/mol
172 | R40W | 2.3 kcal/mol
173 | N7W | 3.1 kcal/mol
174 | N7T | 2.34 kcal/mol
175 | N7M | 2.54 kcal/mol
176 | Q20T | 2.17 kcal/mol
177 | Q20F | 1.68 kcal/mol
178 | Q20H | 1.85 kcal/mol
179 | Q20D | 2.29 kcal/mol
180 | Q20G | 1.48 kcal/mol
181 | Q20E | 2.68 kcal/mol
182 | Q20Y | 1.64 kcal/mol
183 | Q20V | 2.4 kcal/mol
184 | R22Q | 2.45 kcal/mol
185 | R22L | 2.88 kcal/mol
186 | R22N | 1.97 kcal/mol
187 | I37C | 1.49 kcal/mol
188 | I28M | 1.61 kcal/mol
189 | K17I | 2.46 kcal/mol
190 | K17M | 2.64 kcal/mol
191 | K17Y | 2.43 kcal/mol
192 | K17P | 0.05 kcal/mol

Row | Variant | folding stability dG
193 | K17D | 2.06 kcal/mol
194 | K17A | 2.74 kcal/mol
195 | K17E | 2.49 kcal/mol
196 | K17V | 2.29 kcal/mol
197 | I16N | -0.729 kcal/mol
198 | I16S | 0.705 kcal/mol
199 | I16F | 1.02 kcal/mol
200 | I16H | -0.379 kcal/mol
201 | G8H | 2.1 kcal/mol
202 | G8R | 2.33 kcal/mol
203 | G8A | 1.91 kcal/mol
204 | G8T | 3.07 kcal/mol
205 | G8W | 1.75 kcal/mol
206 | G8Q | 1.84 kcal/mol
207 | G8F | 1.97 kcal/mol
208 | G8K | 2.02 kcal/mol
